Bounds are passed on as bounds.

Assay [1] concerns the target HLA-A*01:01. Nature of the assay: IEDB peptide-MHC binding, purified MHC/direct/fluorescence; filed as Kd, often an IC50 or EC50 that approximates it; ≥ and ≤ were set here for values at or beyond the usual limits of such assays.
Assay [2] concerns the target HLA-A*02:01. The description is as above.
In assay [3] the target is HLA-A*03:01. The description is as above.
In assay [4] the target is HLA-A*11:01. The assay is described as above.
Assay [5] deals with HLA-A*24:03. The description is as above.
Assay [6] concerns the target HLA-A*26:01. Described as above.
In assay [7] the target is HLA-A*31:01. The description is as above.
Assay [8] deals with HLA-A*69:01. Described as above.
For assay [9], the target named is HLA-B*07:02. The assay is described as above.
In assay [10] the target is HLA-B*08:01. Described as above.
For assay [11], the target named is HLA-B*15:01. Described as above.
Assay [12] has as its target HLA-B*27:05. The description is as above.
Assay [13] has as its target HLA-B*35:01. The description is as above.
The target of assay [14] is HLA-B*40:01. The assay is described as above.
Assay [15] has as its target HLA-B*44:02. The assay is described as above.
Assay [16] addresses HLA-B*58:01. The description is as above.
For assay [17], the target named is HLA-B*46:01. The description is as above.
Assay [18] deals with HLA-C*14:02. The assay is described as above. As to conditions: source organism: Azotobacter vinelandii DJ.
Assay [19] deals with HLA-A*30:01. The description is as above.
The target in assay [20] is HLA-A*29:02. Described as above. The conditions noted are these: source organism: Vibrio parahaemolyticus AQ3810.
Assay [21] addresses HLA-B*08:02. Described as above. The conditions noted are these: source organism: Vibrio parahaemolyticus AQ3810.
Assay [22] concerns the target HLA-B*18:01. The assay is described as above. The conditions noted are these: source organism: Vibrio parahaemolyticus.
For assay [23], the target named is HLA-B*48:01. The assay is described as above. As to conditions: source organism: Vibrio parahaemolyticus.
Assay [24] has as its target HLA-B*51:01. Described as above. The conditions noted are these: source organism: Vibrio parahaemolyticus AQ3810.
For assay [25], the target named is HLA-A*02:01. Nature of the assay: IEDB peptide-MHC binding, purified MHC/competitive/fluorescence; filed as Kd, often an IC50 or EC50 that approximates it; ≥ and ≤ were set here for values at or beyond the usual limits of such assays. As to conditions: source organism: Vibrio antiquarius.
In assay [26] the target is HLA-A*02:03. Described as above. The conditions noted are these: source organism: Vibrio antiquarius.
The target of assay [27] is HLA-A*02:06. The assay is described as above. The conditions noted are these: source organism: Vibrio antiquarius.
The target of assay [28] is HLA-A*11:01. Described as above. The conditions noted are these: source organism: Vibrio antiquarius.
In assay [29] the target is HLA-B*15:01. Described as above. The conditions noted are these: source organism: Vibrio antiquarius.
Assay [30] deals with HLA-B*15:17. Described as above. The conditions noted are these: source organism: Vibrio antiquarius.
Assay [31] concerns the target HLA-B*57:01. The description is as above. As to conditions: source organism: Vibrio antiquarius.
The target in assay [32] is HLA-A*29:02. The assay is described as above.
In assay [33] the target is HLA-C*15:02. Nature of the assay: IEDB peptide-MHC binding, purified MHC/direct/fluorescence; filed as Kd, often an IC50 or EC50 that approximates it; ≥ and ≤ were set here for values at or beyond the usual limits of such assays. The conditions noted are these: source organism: Cryptosporidium parvum Iowa II.
In assay [34] the target is HLA-B*46:01. Nature of the assay: IEDB peptide-MHC binding, purified MHC/competitive/fluorescence; filed as Kd, often an IC50 or EC50 that approximates it; ≥ and ≤ were set here for values at or beyond the usual limits of such assays. As to conditions: source organism: Psychromonas sp. PRT-SC03.
[35] abbreviates: source organism: Escherichia coli O157:H7.
Setting [36] is: source organism: Burkholderia mallei ATCC 23344.
Setting [37] is: source organism: Burkholderia mallei.
[38] abbreviates: source organism: Giardia lamblia ATCC 50803.
[39] abbreviates: source organism: Pseudomonas aeruginosa.
Setting [40] is: source organism: Ectopseudomonas mendocina.
Setting [41] is: source organism: Vibrio parahaemolyticus.
Setting [42] is: source organism: Vibrio parahaemolyticus AQ3810.
[43] abbreviates: source organism: Enterobacteria phage f1.

Regarding ADLRFASEF, the equilibrium dissociation constant (Kd) in assay [1] (setting [35]), in assay [2] (setting [35]), in assay [3] (setting [35]), in [4] (setting [35]), in assay [5] (setting [35]) and in assay [6] (setting [35]) was no less than 20 µM each time. Moreover, the Kd in [7] (setting [35]) was no less than 20 µM; in [8] (setting [35]), no less than 20 µM; in assay [9] (setting [35]), 11.7 µM; in [10] (setting [35]), 3.84 µM; in [11] (setting [35]), 0.93 µM; in assay [12] (setting [35]) it was no less than 20 µM. The Kd was 0.937 µM in assay [13] (setting [35]), no less than 20 µM in assay [14] (setting [35]), no less than 20 µM in assay [15] (setting [35]) and no less than 20 µM in [16] (setting [35]).
On to AMYAPYGPF, for which the Kd is 9 µM in [9] (setting [36]); no more than 0.001 µM in [11] (setting [37]); 1.88 µM in assay [13] (setting [36]); 0.958 µM in assay [17] (setting [37]); 0.039 µM in assay [18].
Turning to CYPRLWGVR, the Kd in [1] (setting [38]) is no less than 20 µM; in [2] (setting [38]), no less than 20 µM; in assay [3] (setting [38]) it was no less than 20 µM; in [4] (setting [38]), no less than 10 µM; in [6] (setting [38]), no less than 20 µM; in [19] (setting [38]) it was 5.83 µM. Also, the Kd in assay [8] (setting [38]) was no less than 20 µM; in assay [9] (setting [38]) it was 9.36 µM; in [10] (setting [38]), no less than 20 µM; in assay [11] (setting [38]), no less than 20 µM; in assay [12] (setting [38]), no less than 20 µM; in [14] (setting [38]), no less than 20 µM. The dissociation constant (Kd) in assay [15] (setting [38]) and in [16] (setting [38]) was no less than 20 µM throughout.
In the case of EFDNYRGTI, the dissociation constant (Kd) in assay [1] (setting [38]) is no less than 20 µM; in assay [2] (setting [38]), no less than 20 µM; in assay [3] (setting [38]), no less than 20 µM; in [4] (setting [38]) it was no less than 20 µM; in assay [6] (setting [38]), no less than 20 µM; in assay [19] (setting [38]), 7.45 µM. Moreover, the equilibrium dissociation constant (Kd) in assay [7] (setting [38]), in assay [8] (setting [38]), in assay [9] (setting [38]), in assay [10] (setting [38]), in [11] (setting [38]) and in assay [12] (setting [38]) was no less than 20 µM in each case. Moreover, the dissociation constant (Kd) in [14] (setting [38]) was 16.5 µM; in assay [15] (setting [38]), no less than 20 µM; in assay [16] (setting [38]), no less than 20 µM.
For the sequence FSDARLAKL, the equilibrium dissociation constant (Kd) in assay [1] (setting [39]) is 7.32 µM; in assay [2] (setting [39]), 18 µM; in assay [3] (setting [40]) it was no less than 20 µM; in assay [4] (setting [40]), no less than 20 µM; in assay [5] (setting [40]) it was no less than 20 µM; in [6] (setting [40]), no less than 20 µM. Also, the Kd was no less than 20 µM in assay [7] (setting [40]); no less than 20 µM in [8] (setting [40]); 7.92 µM in assay [9] (setting [39]); 5.3 µM in assay [10] (setting [39]); no less than 20 µM in assay [11] (setting [40]); no less than 20 µM in assay [12] (setting [40]). The Kd in [13] (setting [39]) was 0.797 µM; in [14] (setting [39]) it was 8.72 µM; in assay [16] (setting [40]) it was no less than 20 µM.
Consider LVAPHMAMM, for which the Kd in assay [1] (setting [41]) was no less than 20 µM; in [3] (setting [41]), no less than 20 µM; in [20], 0.32 µM; in assay [19] (setting [42]), no less than 20 µM; in assay [7] (setting [41]), no less than 20 µM; in [21] it was no less than 20 µM. The equilibrium dissociation constant (Kd) in [22] is no less than 20 µM; in assay [12] (setting [41]), no less than 20 µM; in [14] (setting [41]), no less than 20 µM; in assay [17] (setting [41]), 11 µM; in [23] it was no less than 20 µM; in assay [24], no less than 20 µM. Further, the Kd in assay [16] (setting [42]) was 0.81 µM; in assay [25] it was 3.41 µM; in assay [26] it was 1.14 µM; in [27], 0.0532 µM; in assay [28] it was no less than 20 µM; in [29], 0.0965 µM. The Kd in assay [30] stood at 0.239 µM; in assay [31] it was 1.13 µM.
Consider PVPDFPYRY, for which the Kd in assay [32] (source organism: Entamoeba dispar SAW760) came to 0.0068 µM.
As for SFIPIFYQF, the values for the dissociation constant (Kd) in assay [33] and in assay [32] (source organism: Cryptosporidium parvum Iowa II) were no less than 20 µM and 0.0022 µM, respectively.
For TFMYVFSTF, the Kd in [1] (setting [43]) was no less than 20 µM; in [2] (source organism: Inovirus M13), 8.33 µM; in [3] (setting [43]) it was no less than 20 µM; in assay [4] (setting [43]), no less than 20 µM; in assay [5] (source organism: Inovirus M13), 0.00639 µM; in [6] (setting [43]), no less than 20 µM. Also, the Kd in assay [8] (setting [43]) is no less than 20 µM; in assay [9] (setting [43]) it was no less than 20 µM; in [10] (setting [43]) it was no less than 20 µM; in [11] (source organism: Inovirus M13), 0.695 µM; in [12] (setting [43]) it was no less than 20 µM; in assay [13] (source organism: Inovirus M13), 0.0806 µM. Also, the values for the Kd in [14] (setting [43]), in assay [16] (source organism: Inovirus M13) and in assay [34] were no less than 20 µM, 1.1 µM and no less than 20 µM, respectively.

For the origin of these results see the Immune Epitope Database (IEDB).
